Assays:
Type in all cases: in vivo
[1] = system: Balb/C mice; assay: Zymosan-induced ear swelling in an inflammatory mouse model (Example 1); details: daily gavage 0.1 mg lactoferrin and/or 50 mg glycine, versus non-supplemented mice
Description: Balb/C mice (8 weeks of age, Charles River, Maastricht, The Netherlands) were randomly assigned two control and three test groups and supplemented daily for three days with 0.1 mg lactoferrin (DMV, Veghel, The Netherlands), 50 mg glycine (Sigma, Zwijndrecht, The Netherlands) or a combination of both components (test groups 3, 4 and 5 respectively) or vehicle (control groups 1 and 2) was administered by gavage. At day two of the supplementation ear thickness was measured using a micrometer (Mitutoyo Digimatic, Veenendaal, The Netherlands) Subsequently 25 μl 0.5% zymosan (Sigma) in PBS (group 2-5) or vehicle (group 1) was injected subcutaneously in both ears. Ear thickness was measured 3, 6 and 24 hours (example 1) after injection after which the animals were sacrificed.
In mice injected in the ear with zymosan, lactoferrin (LF) and glycine (Gly) supplemented mice show a highest decrease in ear swelling when compared to non-supplemented mice, see Table 1. A clear synergistic effect of LF and Gly is observed.

[2] = system: Balb/C mice; assay: Dose response of lactoferrin in zymosan-induced ear swelling mouse model (Example 3)
[3] = system: TNF-α producing cells; assay: Ex-vivo ELISpot of TNF-α producing spleen cells from supplemented mice with zymosan-induced ear inflammation (Example 2); details: 1 μg/ml LPS, after three days of oral supplementation
Description: The spleen was removed and pushed through a cell strainer. Red blood cell lysis was performed in 5 ml of could lysis buffer (4.15 g NH4Cl, 0.5 g KHCO3 and 18.6 mg Na2EDTA in 1 liter water at pH 7,3) for 5 minutes. Cells were washed twice in could RPMI (Invitrogen, Merelbeke, Belgium) and after centrifugation diluted to a concentration of 1.10^7 cells/ml. TNF-α producing cells were detected by ELISpot assay in the absence or presence of 1 μg/ml lipopolysaccharide (Sigma) (example 2).
Spleen cells were collected from mice with a zymosan-induced inflammation in the ear after three days of oral supplementation with water (=control), lactoferrin (LF), glycine or a combination of LF and glycine. The number of TNF-α producing cells was determined using an ELISpot assay. LF and glycine inhibit the LPS stimulated number of TNF producing cells by 92% and 97% respectively (back to not zymosan treated control levels). The combination of glycine and lactoferrin inhibited the number of TNF-α positive cells 50% below the […] injected control. This unexpected high rate of inhibition makes the combination of glycine with lactoferrin an excellent choice for the treatment of inflammatory diseases.

B1: lactoferrin (protein, UniProt P24627 20-708, looked up)
Lactotransferrin: APRKNVRWCTISQPEWFKCRRWQWRMKKLGAPSITCVRRAFALECIRAIAEKKADAVTLDGGMVFEAGRDPYKLRPVAAEIYGTKESPQTHYYAVAVVKKGSNFQLDQLQGRKSCHTGLGRSAGWIIPMGILRPYLSWTESLEPLQGAVAKFFSASCVPCIDRQAYPNLCQLCKGEGENQCACSSREPYFGYSGAFKCLQDGAGDVAFVKETTVFENLPEKADRDQYELLCLNNSRAPVDAFKECHLAQVPSHAVVARSVDGKEDLIWKLLSKAQEKFGKNKSRSFQLFGSPPGQRDLLFKDSALGFLRIPSKVDSALYLGSRYLTTLKNLRETAEEVKARYTRVVWCAVGPEEQKKCQQWSQQSGQNVTCATASTTDDCIVLVLKGEADALNLDGGYIYTAGKCGLVPVLAENRKSSKHSSLDCVLRPTEGYLAVAVVKKANEGLTWNSLKDKKSCHTAVDRTAGWNIPMGLIVNQTGSCAFDEFFSQSCAPGADPKSRLCALCAGDDQGLDKCVPNSKEKYYGYTGAFRCLAEDVGDVAFVKNDTVWENTNGESTADWAKNLNREDFRLLCLDGTRKPVTEAQSCHLAVAPNHAVVSRSDRAAHVKQVLLHQQALFGKNGKNCPDKFCLFKSETKNLLFNDNTECLAKLGGRPTYEEYLGTEYVTAIANLKKCSTSPLLEACAFLTR
notes: globular multifunctional protein of the transferrin family (DMV, Veghel)
Decrease in ear swelling ([1]; 3 hrs after zymosan injection in ears): 39 ± 12
Decrease in ear swelling ([1]; 6 hrs after zymosan injection in ears): 53 ± 17
swelling ([2]; 0.1 mg LF daily by gavage, time 1 hr): 78
swelling ([2]; 0.1 mg LF daily by gavage, time 2 hr): 108
swelling ([2]; 0.1 mg LF daily by gavage, time 4 hr): 109
swelling ([2]; 1 mg LF daily by gavage, time 1 hr): 73
swelling ([2]; 1 mg LF daily by gavage, time 2 hr): 105
swelling ([2]; 1 mg LF daily by gavage, time 4 hr): 121
swelling ([2]; 5 mg LF daily by gavage, time 1 hr): 99
swelling ([2]; 5 mg LF daily by gavage, time 2 hr): 153
swelling ([2]; 5 mg LF daily by gavage, time 4 hr): 204
Optimal dose ([2]; mouse, daily gavage, higher than 0): less than 5 mg
Inhibition of the LPS stimulated number of TNF producing cells [3]: 92%

— patent US20100215631A1, “ANTI-INFLAMMATORY COMPOSITION COMPRISING GLYCINE AND LACTOFERRIN AND THE USE THEREOF” (priority 2006, published 2010)
